Measurements published in the supplement of paper PMC10567573.

B1: FBXO39 (parent)
chain: RVFKARIYTNRYETNEEDKTLQEI
B2: KLHL14 (parent)
chain: WLYCYDPVMDVWARKQDMNTKRAI

Variants of: B1
Experiment: protein stability index of a GFP-peptide fusion (GPS, HEK-293T) (PSI 1-6); higher = more stable
Conditions: c terminus: a fixed tail appended
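Note: lentivirally expressed fusions sorted by FACS into six bins by GFP to DsRed ratio, PSI derived from sequencing read proportions per bin multiplied by bin number.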

Protein stability index: each site, then its substitutions
K19: G 3.62, W 2.54, R 4, I 2.58, T 2.79, Q 3.23, V 2.62, C 3.04, Y 2.57, S 3.39, N 2.83, H 2.92, M 2.3, A 2.15, L 2.44, E 3.84, P 2.91, F 2.61
E17: F 1.63, L 2.41, G 1.4, T 2.83, M 1.89, N 1.98, K 2.24, D 3.12, W 2.27, Y 2.72, S 2.1, H 2.02, I 1.59, R 2.43, C 2.03, Q 2.33, P 2.41
D18: K 2.7, Y 2.78, W 2.18, M 2.22, V 2.4, E 2.48, Q 2.78, L 2.46, S 1.71, R 2.38, G 2.53, T 2.36, P 2.56, F 1.67, H 2.16, C 2.33, A 3.19, N 2.25, I 2.68
Q22: A 3.02, F 1.76, T 1.98, W 1.79, K 2.38, L 2.33, Y 2.6, I 1.4, M 2.5, R 2.91, G 3.19, V 1.75, D 3, N 2.49, C 3.48, S 1.12, H 1.64
T20: G 1.79, P 2.73, M 3.06, W 2.49, E 2.53, L 2.38, V 3.47, F 2.74, S 3.2, N 2.57, C 2.55, I 1.76, D 3.48, K 2.53, A 2.87, Q 2.78, Y 2.17, R 2.77
E23: D 2.58, I 1.88, F 1.93, L 2.42, M 2.14, R 2.05, C 2.13, G 2.19, W 1.74, T 2.44, V 2.41, S 2.32, Q 2.21, P 2.39, Y 2.14, H 2.74, K 2.74, N 2.15
L21: C 2.21, Y 1.99, D 3.88, Q 3.18, V 2.86, W 2.5, S 2.93, M 3.24, K 2.5, F 2.52, T 2.97, E 3.38, N 3.26, P 3.27, G 3.2, A 2.9, R 2.97, I 2.62, H 3.76
I24: R 3.22, Y 3.17, N 2.64, M 2.25, E 3.48, H 3.7, F 2.55, V 3.44, K 2.98, T 2.75, Q 3.32, W 2.34, D 3.26, S 3.36, C 2.61, P 3.21
E16: P 1.89, H 2.58, W 2.27, C 2.38, D 2.88, Q 2.08, S 2.6, L 1.75, R 2.33, N 1.74, G 2.33, T 2.28, V 1.92, I 3.1, Y 1.29, F 1.45

Variants of: B2
Experiment: as above
Conditions: c terminus: a fixed tail appended

Protein stability index of substitutions, site by site:
W1: E 3.72, H 3.4, K 2.55, I 1.92, A 2.56, C 2.27, G 2.4, F 1.99, D 4.41
